Drawing on publication PMC5481773 (2017), this text covers Kd for 3 molecules.

B1: FEN1 PIP box peptide used for ITC (peptide)
chain: QGSTQGRLDDFFKVT
modifications: Exact limits are in the supplement. Window is the 15-mer homologous to ZRANB3 515-529, aligned on Q337. Termini chemistry not stated.
B2: Polι PIP box peptide used for ITC (peptide)
chain: NTAKKGLIDYYLMPS
modifications: Exact limits are in the supplement. Window is the 15-mer homologous to ZRANB3 515-529 (equal lengths stated); the PIP box KGLIDYYL is 421-428 in 715-aa numbering, +25 in the 740-aa entry. Check residues are not named in the paper. Termini chemistry not stated.
B3: p21 PIP box peptide used for ITC (peptide)
chain: RKRRQTSMTDFYHSK
modifications: Exact limits are in the supplement. Window is the 15-mer homologous to ZRANB3 515-529, aligned on Q144. Check residues are not named in the paper. Termini chemistry not stated.

The target of the test is His-tagged Proliferating Cell Nuclear Antigen (PCNA) (human, UniProt P12004 1-261). Kind of test: ITC. In general terms: ITC needs no label: the signal is the heat of the interaction.
Chain of His-tagged Proliferating Cell Nuclear Antigen (PCNA) (P12004 whole entry): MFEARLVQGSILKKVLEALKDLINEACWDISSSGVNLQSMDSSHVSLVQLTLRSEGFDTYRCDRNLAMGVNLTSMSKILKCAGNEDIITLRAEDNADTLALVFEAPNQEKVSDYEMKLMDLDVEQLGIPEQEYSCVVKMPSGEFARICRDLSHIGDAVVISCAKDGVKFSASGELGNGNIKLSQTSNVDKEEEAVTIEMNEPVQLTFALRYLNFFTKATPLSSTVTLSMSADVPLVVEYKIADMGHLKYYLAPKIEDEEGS
Molecule B1 returned a Kd of 17.3 µM.
Take B2: the Kd turned out to be 5.45 µM.
Take B3: the Kd was found to be 0.275 µM. Compared with the last molecule, the Kd is about 20-fold lower.

In general, Kd refers to the constant that tells how readily two partners part at equilibrium. High values mean lower affinity, low ones higher affinity.
